B1: HDV Ribozyme (parent)
chain: GGCCGGCAUGGUCCCAGCCUCCUCGCUGGCGCCGGCUGGGCAACAUUCCGAGGGGACCGUCCCCUCGGUAAUGGCGAAUGGGACCCA

In the data set the parent is B1. Put plainly: self-cleavage, relative activity (ratio to wild type); higher = more cleavage; co-transcriptional.
Take A78G C86G: the self-cleavage was determined as 0.806.
As to G81C A83U, the self-cleavage is 0.237.
Take G81C A83C: the self-cleavage amounted to 0.222.
With G81C A83G the figure was 0.131; with U79G C85A, 0.415.
For the variant U79G G81C, the self-cleavage was 0.26.
For the variant A77U U79G, the self-cleavage was determined as 0.161.
With G82U C86U the figure was 0.554; with G80C C84G, 0.163.
On to G80C C84U, for which the self-cleavage is 0.16.
With C75U A87G the figure was 0.0917.
With A78U G80A the figure was 0.111; with G76U G82U, 0.483.
Turning to A83C A87U, the self-cleavage is 0.346.
Regarding G76C U79A, the self-cleavage came out at 0.649.
In the case of G76C U79C, the self-cleavage came to 0.643.
As to G76C U79G, the self-cleavage was determined as 0.617.
For G76C C86U, the self-cleavage was 0.886.
Regarding G76A U79C, the self-cleavage amounted to 0.964.
A78G C84G: the self-cleavage amounted to 0.185.
A78C U79A: the self-cleavage was 0.0978.
Regarding U79C A83G, the self-cleavage amounted to 0.253.
With G76C A78U the figure was 0.339; with G82U A87C, 0.406; with A77C A83C, 0.172.
Take C75G A77C: the self-cleavage stood at 0.128.
Take C75G A77G: the self-cleavage was 0.0755.
As to C75G A77U, the self-cleavage turned out to be 0.213.
With A78G G80U, the self-cleavage amounted to 0.12.
For the variant A83U C84A, the self-cleavage was 0.813.
Under A83U C84G stands 0.332; under A77C A87G, 0.208.
Under A77G A83G stands 0.906; under C75G A87C, 0.073; under C75U C86U, 0.0563.
With A77C G82C the figure was 0.116.
Turning to A77U A87G, the self-cleavage turned out to be 0.591.
Consider U79G A83U, for which the self-cleavage was 0.122.
With A77U A78C the figure was 0.332; with G76U G81A, 0.506.
As to G80C A83U, the self-cleavage came out at 0.164.
C84A C86U: the self-cleavage was found to be 0.719.
With G76C G82A the figure was 0.432.
Consider G76C G82C, for which the self-cleavage is 0.225.
A78U G81C: the self-cleavage was found to be 0.213.
For G80U A87U, the self-cleavage is 0.235.
With U79A G80U, the self-cleavage was 0.148.
Under G80A C86G stands 0.362; under A77G G80A, 0.242; under C75U G82A, 0.202.
Take U79A G81A: the self-cleavage came to 0.0773.
Turning to G76A G81U, the self-cleavage came out at 0.437.
Take G80A A87G: the self-cleavage came to 0.424.
As to C75G C85U, the self-cleavage worked out at 0.237.
Under A77G A87C stands 0.735; under A77G A87G, 0.966.
Take C75A G82C: the self-cleavage is 0.188.
Take C75A G82U: the self-cleavage is 0.101.
On to C75U G76U, for which the self-cleavage was 0.271.
Turning to G80A G81A, the self-cleavage was 0.185.
A78G A87G: the self-cleavage turned out to be 0.658.
In the case of G82C C84G, the self-cleavage is 0.101.
Under C84U A87G stands 0.437; under A78U A87U, 0.243.
Under A78G G81C stands 0.148; under G80U A83G, 0.253; under G80U A83C, 0.254.
Consider A77C A78G, for which the self-cleavage amounted to 0.151.
For G81U G82C, the self-cleavage was determined as 0.297.
A83U C85U: the self-cleavage worked out at 0.446.
Regarding U79A C84G, the self-cleavage amounted to 0.256.
With G81C G82A, the self-cleavage worked out at 0.0665.
For the variant G76C A83U, the self-cleavage worked out at 0.464.
In the case of G76C A83G, the self-cleavage is 0.554.
With G80U C84G, the self-cleavage stood at 0.332.
Consider G80U C84U, for which the self-cleavage was 0.164.
Under A78U U79C stands 0.375; under A78U U79G, 0.138.
Consider G76A C84U, for which the self-cleavage came to 1.05.
As for G76A C84G, the self-cleavage came to 0.939.
A78G A83C: the self-cleavage came out at 0.128.
Regarding A83G C84U, the self-cleavage is 0.798.
For G82C A83G, the self-cleavage amounted to 0.233.
For U79A C85A, the self-cleavage amounted to 0.724.
Take C85A A87G: the self-cleavage amounted to 0.875.
Consider A83C C84U, for which the self-cleavage was determined as 0.582.
Turning to U79C C85A, the self-cleavage turned out to be 0.389.
U79C C85G: the self-cleavage was 0.287.
Under G76U A77U stands 0.868; under G81U A87U, 0.455; under G81A C85U, 0.163.
With C75G A83G, the self-cleavage worked out at 0.153.
Consider C84A A87C, for which the self-cleavage was 0.758.
Turning to A78U C84U, the self-cleavage stood at 0.252.
For G76C A77U, the self-cleavage was 0.399.
Consider G76A A83U, for which the self-cleavage worked out at 0.875.
Under A77U C84U stands 0.489; under G81U C86A, 0.652; under A78C A83G, 0.179.
Regarding G82A A83C, the self-cleavage amounted to 0.451.
G82A A83G: the self-cleavage turned out to be 0.156.
With C75G G82A the figure was 0.208; with G76U U79A, 0.984; with G80C C86A, 0.213.
Turning to G80C C86U, the self-cleavage was 0.3.
As to A77G C85G, the self-cleavage was 0.655.
For the variant A77G C85U, the self-cleavage was 1.04.
Regarding U79C G82U, the self-cleavage was 0.256.
Take U79C G82C: the self-cleavage was found to be 0.222.
As for C75G G76C, the self-cleavage is 0.189.
For A77G U79G, the self-cleavage turned out to be 0.465.
As for A77G U79A, the self-cleavage is 0.554.
Consider A77G U79C, for which the self-cleavage amounted to 0.443.
On to G82C C86A, for which the self-cleavage turned out to be 0.527.
In the case of A78G U79C, the self-cleavage was found to be 0.225.
Under C85G C86G stands 0.905.
With U79A A83U the figure was 0.256.
As to G82A C86G, the self-cleavage is 0.279.
For the variant C85G A87U, the self-cleavage turned out to be 0.785.
With C75U G80A the figure was 0.0573; with A78C G81U, 0.128.
On to A78C G81C, for which the self-cleavage is 0.0665.
With G80U C85G, the self-cleavage is 0.191.
As to U79G G82C, the self-cleavage is 0.119.
Under G76C G81U stands 0.475; under G81U, 0.365.
For the variant G81C, the self-cleavage stood at 0.268.
Turning to G81A, the self-cleavage was determined as 0.403.
Under A78U C85A stands 0.185; under A78U C85U, 0.18; under G76A C86U, 0.92.
Under G76A C85U stands 1.11; under C75U A83G, 0.166; under G76C G80U, 0.256.
Consider G81A C86A, for which the self-cleavage was 0.805.
In the case of C75U C85U, the self-cleavage turned out to be 0.138.
Under C75U C85A stands 0.0959.
Under C75U C85G stands 0.122; under C75G C84G, 0.282.
Turning to A77C C84A, the self-cleavage was found to be 0.128.
Take G80C C85G: the self-cleavage turned out to be 0.205.
Under G81C C86G stands 0.138; under G76A A87U, 1.08; under G82A C84G, 0.232.
Consider G82A C84U, for which the self-cleavage is 0.215.
Take C75U A77U: the self-cleavage worked out at 0.374.
For A77G G82A, the self-cleavage was found to be 0.364.
With A77G G82U, the self-cleavage is 0.277.
For G81A A87G, the self-cleavage was 0.258.
Take A77C G80C: the self-cleavage came out at 0.179.
A77C G80A: the self-cleavage was found to be 0.0378.
With G82C A87U the figure was 0.247; with G82U C84G, 0.249.
With C75U G81U the figure was 0.193; with C75U G81A, 0.166; with G81U A83U, 0.126.
Take A83U C86A: the self-cleavage came to 0.708.
With A83U C86G the figure was 0.361; with G81A C84G, 0.237.
Consider U79C C84A, for which the self-cleavage worked out at 0.462.
For A77C C86U, the self-cleavage stood at 0.519.
In the case of A77C C86G, the self-cleavage was determined as 0.302.
With G81C C85U, the self-cleavage worked out at 0.244.
For the variant U79A G82C, the self-cleavage worked out at 0.0504.
Under U79A G82U stands 0.374.
Turning to A78U, the self-cleavage is 0.316.
Take A78G: the self-cleavage turned out to be 0.75.

(Values after the RNAGym collection of RNA variant scans (doi:10.7554/elife.80360).)
